Here are results for 3 substances from patent US20180346594A1.

The target in assay [1] is 16C3 antigen (human colorectal and pancreatic carcinoma-associated antigen, CPAA, recognized by the 16C3 antibody) (human). The experiment in a line: FACS, AsPC-1 cells, 4 ng antibody.
For assay [2] the target is unchanged. The experiment in a line: FACS, HT-29 colorectal cells.
Assay [3] has the same target. The experiment in a line: FACS, LS174T colorectal cells. A general note: In flow cytometry, cells or beads pass a laser one at a time.
Assay [4] shares this target. As to the kind of experiment: FACS, AsPC-1 cells, 20 ng antibody.
Assay [5] shares this target. The experiment in a line: FACS, CFPAC-1 pancreatic cells.
Assay [6] shares this target. As to the kind of experiment: FACS, AsPC-1 cells, 1 ug antibody.
Assay [7] has the same target. The experiment in a line: FACS, AsPC-1 pancreatic cells.
The target is the same in assay [8]. As to the kind of experiment: FACS, AsPC-1 cells, 0.8 ng antibody.
For assay [9] the target is unchanged. The experiment in a line: FACS, AsPC-1 cells, 5 uL.
For assay [10] the target is unchanged. The experiment in a line: FACS, AsPC-1 cells, 100 ng antibody.
Assay [11] shares this target. As to the kind of experiment: FACS, LS174T colorectal cells, secondary antibody only.
The target is the same in assay [12]. As to the kind of experiment: FACS, AsPC-1 cells, secondary antibody only.
The target is the same in assay [13]. The experiment in a line: FACS, CFPAC-1 pancreatic cells, secondary antibody only.
The target is the same in assay [14]. As to the kind of experiment: FACS, AsPC-1 pancreatic cells, secondary antibody only.
For assay [15] the target is unchanged. The experiment in a line: FACS, LS174T cells, secondary antibody only.
For assay [16] the target is unchanged. The experiment in a line: FACS, HT-29 colorectal cells, secondary antibody only.
Assay [17] has the same target. As to the kind of experiment: FACS, CFPAC-1 cells, secondary antibody only.

With “16C3 mAb (murine monoclonal antibody, IgG1 heavy chain, kappa light chain)”, the % AsPC-1 tumor cell binding turned out to be 4.26% in [1], 47.9% in [4], 1.28% in assay [8] and 61.7% in assay [10]. Moreover, the MFI in assay [1] was determined as 52 MFI; in [4], 69 MFI; in [8], 615 MFI; in [10] it was 228 MFI. The % Cell Staining in [2] was 91%; in assay [3], 40.6%; in assay [5] it was 96.2%; in [7] it was 69.9%. Moreover, the mfi in [2] was 78 mfi; in assay [3], 59 mfi; in [5] it was 323 mfi; in assay [6], 138 mfi; in assay [7], 36 mfi; in assay [9], 34 mfi. Further, the % AsPC-1 Cells Stained in assay [6] came out at 89.5%; in assay [9], 81.4%.
In assay [11], “Goat anti-Mouse IgG-FITC control (fluorescein-labelled goat anti-mouse antibody, secondary reagent alone)” showed a % Cell Staining of 0.94% and a mfi of 15 mfi. In assay [12], this substance came in with a % AsPC-1 Cells Stained of 1.01%, a % AsPC-1 tumor cell binding of 1.55%, an MFI of 70 MFI and a mfi of 8 mfi. Besides, in [13], the % Cell Staining came to 0.83% and the mfi was found to be 14 mfi. In [14], this substance had a % Cell Staining of 2.68% and a mfi of 30 mfi. In assay [15], this substance gave a % LS174T tumor cell binding of 1.63% and an MFI of 43 MFI. Besides, in assay [16], the % Cell Staining is 0.84% and the mfi turned out to be 10 mfi.
In assay [12], “Rabbit anti-Human IgG-FITC control (secondary reagent alone) (antibody)” displayed a % AsPC-1 tumor cell binding of 2.05% and an MFI of 59 MFI. In [17], this substance yielded a % binding to CFPAC-1 cells of 2.1% and a mfi of 20 mfi. In assay [15], this substance registered a % binding to LS174T cells of 3.49% and a mfi of 33 mfi.
